# Reference: US20090304687A1, “METHODS OF USING CD40 BINDING AGENTS” (Seattle Genetics , Inc., priority 2005, published 2009)
# “And” between values parts separate entries of the source, which are not always exact repeats. Equal values may be shown once. “Also recorded” adds a separate entry of the source. Read-outs that look alike come from different tables or passages of the source.
# B1: hu sgn-1 (antibody, V domains shown)
# VH: EVQLVESGGGLVQPGGSLRLSCAASGYSFTGYYIHWVRQAPGKGLEWVARVIPNNGGTSYNQKFKGRFTISVDNSKNTLYLQMNSLRAEDTAVYYCAREGIYWWGQGTLVTVS
# VL: DIQMTQSPSSLSASVGDRVTITCRSSQSLVHSNGNTFLHWYQQKPGKAPKLLIYTVSNRFSGVPSRFSGSGSGTDFTLTISSLQPEDFATYYCSQTTHVPWTFGQGTKVEIKR
# B2: hu sgn-16: humanized CD40 antibody variant, heavy SEQ ID NO: 9 (F68A I69L R72V), light SEQ ID NO: 14 (antibody, V domains shown)
# VH: EVQLVESGGGLVQPGGSLRLSCAASGYSFTGYYIHWVRQAPGKGLEWVARVIPNNGGTSYNQKFKGRATLSVDNSKNTLYLQMNSLRAEDTAVYYCAREGIYWWGQGTLVTVS
# VL: DIQMTQSPSSLSASVGDRVTITCRSSQSLVHSNGNTFLHWYQQKPGKAPKLLIYTVSNRFSGVPSRFSGSGSGTDFTLTISSLQPEDFATYYCSQTTHVPWTFGQGTKVEIKR
# B3: hu sgn-14: humanized CD40 antibody variant, heavy SEQ ID NO: 7 (I70L R72V L79A), light SEQ ID NO: 14 (antibody, V domains shown)
# VH: EVQLVESGGGLVQPGGSLRLSCAASGYSFTGYYIHWVRQAPGKGLEWVARVIPNNGGTSYNQKFKGRFTLSVDNSKNTAYLQMNSLRAEDTAVYYCAREGIYWWGQGTLVTVS
# VL: DIQMTQSPSSLSASVGDRVTITCRSSQSLVHSNGNTFLHWYQQKPGKAPKLLIYTVSNRFSGVPSRFSGSGSGTDFTLTISSLQPEDFATYYCSQTTHVPWTFGQGTKVEIKR
# B4: hu sgn-19: humanized CD40 antibody variant, heavy SEQ ID NO: 7, light SEQ ID NO: 16 (Y92F) (antibody, V domains shown)
# VH: EVQLVESGGGLVQPGGSLRLSCAASGYSFTGYYIHWVRQAPGKGLEWVARVIPNNGGTSYNQKFKGRFTLSVDNSKNTAYLQMNSLRAEDTAVYYCAREGIYWWGQGTLVTVS
# VL: DIQMTQSPSSLSASVGDRVTITCRSSQSLVHSNGNTFLHWYQQKPGKAPKLLIYTVSNRFSGVPSRFSGSGSGTDFTLTISSLQPEDFATYFCSQTTHVPWTFGQGTKVEIKR
# B5: hu sgn-23 (antibody, V domains shown)
# VH: EVQLVESGGGLVQPGGSLRLSCAASGYSFTGYYIHWVRQAPGKGLEWVARVIPNQGGTSYNQKFKGRFTLSVDNSKNTAYLQMNSLRAEDTAVYYCAREGIYWWGQGTLVTVS
# VL: DIQMTQSPSSLSASVGDRVTITCRSSQSLVHSNGNTFLHWYQQKPGKAPKLLIYTVSNRFSGVPSRFSGSGSGTDFTLTISSLQPEDFATYYCSQTTHVPWTFGQGTKVEIKR
# B6: hu sgn-15 (antibody, V domains shown)
# VH: EVQLVESGGGLVQPGGSLRLSCAASGYSFTGYYIHWVRQAPGKGLEWVARVIPNNGGTSYNQKFKGRATISVDNSKNTAYLQMNSLRAEDTAVYYCAREGIYWWGQGTLVTVS
# VL: DIQMTQSPSSLSASVGDRVTITCRSSQSLVHSNGNTFLHWYQQKPGKAPKLLIYTVSNRFSGVPSRFSGSGSGTDFTLTISSLQPEDFATYYCSQTTHVPWTFGQGTKVEIKR
# B7: hu sgn-2 (antibody, V domains shown)
# VH: EVQLVESGGGLVQPGGSLRLSCAASGYSFTGYYIHWVRQAPGKGLEWVARVIPNNGGTSYNQKFKGRFTISRDKSKNTLYLQMNSLRAEDTAVYYCAREGIYWWGQGTLVTVS
# VL: DIQMTQSPSSLSASVGDRVTITCRSSQSLVHSNGNTFLHWYQQKPGKAPKLLIYTVSNRFSGVPSRFSGSGSGTDFTLTISSLQPEDFATYYCSQTTHVPWTFGQGTKVEIKR
# B8: hu sgn-18 (antibody, V domains shown)
# VH: EVQLVESGGGLVQPGGSLRLSCAASGYSFTGYYIHWVRQAPGKGLEWVARVIPNNGGTSYNQKFKGRATLSVDNSKNTAYLQMNSLRAEDTAVYYCAREGIYWWGQGTLVTVS
# VL: DIQMTQSPSSLSASVGDRVTITCRSSQSLVHSNGNTFLHWYQQKPGKAPKLLIYTVSNRFSGVPSRFSGSGSGTDFTLTISSLQPEDFATYFCSQTTHVPWTFGQGTKVEIKR
# B9: hu sgn-17 (antibody, V domains shown)
# VH: EVQLVESGGGLVQPGGSLRLSCAASGYSFTGYYIHWVRQAPGKGLEWVARVIPNNGGTSYNQKFKGRATLSVDNSKNTAYLQMNSLRAEDTAVYYCAREGIYWWGQGTLVTVS
# VL: DVQVTQSPSSLSASVGDRVTITCRSSQSLVHSNGNTFLHWYQQKPGKAPKLLIYTVSNRFSGVPSRFSGSGSGTDFTLTISSLQPEDFATYYCSQTTHVPWTFGQGTKVEIKR
# B10: hu sgn-26 (antibody, V domains shown)
# VH: EVQLVESGGGLVQPGGSLRLSCAASGYSFTGYYIHWVRQAPGKGLEWVARVIPNAGGTSYNQKFKGRFTLSVDNSKNTAYLQMNSLRAEDTAVYYCAREGIYWWGQGTLVTVS
# VL: DIQMTQSPSSLSASVGDRVTITCRSSQSLVHSNGNTFLHWYQQKPGKAPKLLIYTVSNRFSGVPSRFSGSGSGTDFTLTISSLQPEDFATYFCSQTTHVPWTFGQGTKVEIKR
# B11: hu sgn-4 (antibody, V domains shown)
# VH: EVQLVESGGGLVQPGGSLRLSCAASGYSFTGYYIHWVRQAPGKGLEWVARVIPNNGGTSYNQKFKGRATLSVDNSKNTAYLQMNSLRAEDTAVYYCAREGIYWWGQGTLVTVS
# VL: DIQMTQSPSSLSASVGDRVTITCRSSQSLVHSNGNTFLHWYQQKPGKAPKLLIYTVSNRFSGVPSRFSGSGSGTDFTLTISSLQPEDFATYYCSQTTHVPWTFGQGTKVEIKR
# B12: hu sgn-27 (antibody, V domains shown)
# VH: EVQLVESGGGLVQPGGSLRLSCAASGYSFTGYYIHWVRQAPGKGLEWVARVIPNQGGTSYNQKFKGRFTLSVDNSKNTAYLQMNSLRAEDTAVYYCAREGIYWWGQGTLVTVS
# VL: DIQMTQSPSSLSASVGDRVTITCRSSQSLVHSNGNTFLHWYQQKPGKAPKLLIYTVSNRFSGVPSRFSGSGSGTDFTLTISSLQPEDFATYFCSQTTHVPWTFGQGTKVEIKR
# B13: hu sgn-22 (antibody, V domains shown)
# VH: EVQLVESGGGLVQPGGSLRLSCAASGYSFTGYYIHWVRQAPGKGLEWVARVIPNAGGTSYNQKFKGRFTLSVDNSKNTAYLQMNSLRAEDTAVYYCAREGIYWWGQGTLVTVS
# VL: DIQMTQSPSSLSASVGDRVTITCRSSQSLVHSNGNTFLHWYQQKPGKAPKLLIYTVSNRFSGVPSRFSGSGSGTDFTLTISSLQPEDFATYYCSQTTHVPWTFGQGTKVEIKR
# B14: SGN-14 (parent murine antibody, donor) (antibody, V domains shown)
# VH: EVQLQQSGPDLVKPGASVKISCKASGYSFTGYYIHWVKQSHGKSLEWIGRVIPNNGGTSYNQKFKGKAILTVDKSSSTAYMELRSLTSEDSAVYYCAREGIYWWGHGTTLTVS
# VL: DVVVTQTPLSLPVSLGAQASISCRSSQSLVHSNGNTFLHWYLQKPGQSPKLLIYTVSNRFSGVPDRFSGSGSGTDFTLKISRVEAEDLGVYFCSQTTHVPWTFGGGTKLEIQR
# notes: Murine monoclonal antibody; also called S2C6; murine CD40 donor antibody
# Key:
# Ramos cells = assay: In vitro drug combinations with SGN-40, 3H-thymidine proliferation, Combination Index; format: cell-based; conditions: for Combination Index at ED50 / Combination Index at ED75 / Combination Index at ED90: drug with cross-linked SGN-40 (30.0-0.0586 ng/ml), Ramos cells 2% FBS, 72 hours
# Method: Cells were treated for 72 hours, then labeled with ^3H-thymidine for 4 hours to measure proliferation rates. Dose response curves of drugs alone and in combination with the humanized CD40 antibody were reduced in Excel, and Combination Indices (CI) determined using the Calcusyn analysis package (Biosoft). […] CI values equal to 1.0 indicate an additive integration. For these studies, n=3 unless otherwise indicated.
# [1] = molecular target: CD40 immobilized on microassay plates (UniProt P25942 21-193, limits assumed); assay: serially diluted antibody on CD40 immobilized on microassay plates
# Method: (§1) Antibodies constructed using these variant light and heavy chain variable domains were analyzed for binding activity. Each antibody was diluted to equivalent concentrations, and then serially diluted. The diluted antibodies were assayed for binding to CD40 immobilized on microassay plates.
# CD40 = CD40 (Homo sapiens, UniProt P25942); assay: Binding of variant antibodies to CD40 immobilized on microassay plates; parameters: Binding Data 1 / Binding Data 2 / Binding Data 3: unit not given here; conditions: for Binding Data 2 / Binding Data 1: affinity binding data, serially diluted antibody on immobilized CD40; for binding activity compared with the parent murine antibody: in words
# Method: as §1, with “plates. Affinity binding data for the variant antibodies are shown below in Table 3.” for “plates.”
# [2] = drug with cross-linked SGN-40, Ramos cells
# CD40, sequence (P25942 21-277): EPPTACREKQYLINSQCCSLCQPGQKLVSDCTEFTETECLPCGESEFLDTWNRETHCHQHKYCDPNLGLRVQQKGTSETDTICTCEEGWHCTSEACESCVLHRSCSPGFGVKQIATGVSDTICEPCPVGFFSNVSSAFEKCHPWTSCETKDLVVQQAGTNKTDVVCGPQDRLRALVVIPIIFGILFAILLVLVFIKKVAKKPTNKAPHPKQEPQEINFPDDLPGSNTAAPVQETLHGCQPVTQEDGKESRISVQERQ
# CD40 immobilized on microassay plates, sequence (P25942 21-193 limits assumed): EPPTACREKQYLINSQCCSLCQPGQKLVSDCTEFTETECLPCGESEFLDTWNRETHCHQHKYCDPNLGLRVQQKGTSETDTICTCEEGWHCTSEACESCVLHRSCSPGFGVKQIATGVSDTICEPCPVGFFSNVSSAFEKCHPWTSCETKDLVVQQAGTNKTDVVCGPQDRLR
molecule,measurement,setting,value
Nc1ccn([C@@H]2O[C@H](CO)[C@@H](O)[C@@H]2O)c(=O)n1 [Ara-C],Combination Index at ED50,Ramos cells,0.95
same,Combination Index at ED75,Ramos cells,0.90
same,Combination Index at ED90,Ramos cells,0.90
same,Effect (of combination with SGN-40),Ramos cells; [2],Additive
N.N.[Cl][Pt][Cl] [Cisplatin],Combination Index at ED50,Ramos cells,1.04
same,Combination Index at ED75,Ramos cells,0.89
same,Combination Index at ED90,Ramos cells,0.78
same,Effect (of combination with SGN-40),Ramos cells; [2],Additive → Syn.
same,Effect (of combination with SGN-40),"Ramos cells; drug with cross-linked SGN-40, Ramos cells, listed as cisplatin",additive
COc1cc([C@@H]2c3cc4c(cc3[C@@H](O[C@@H]3O[C@@H]5CO[C@@H](C)O[C@H]5[C@H](O)[C@H]3O)[C@H]3COC(=O)[C@H]23)OCO4)cc(OC)c1O [Etoposide],Effect (of combination with SGN-40),Ramos cells; [2],Antagonistic. → Add.
N[C@@H](Cc1ccc(N(CCCl)CCCl)cc1)C(=O)O [Melphalan],Effect (of combination with SGN-40),Ramos cells; [2],Additive
same,Effect (of combination with SGN-40),"Ramos cells; drug with cross-linked SGN-40, Ramos cells, listed as melphalan",additive
O=C1c2c(O)ccc(O)c2C(=O)c2c(NCCNCCO)ccc(NCCNCCO)c21 [Mitoxantrone],Effect (of combination with SGN-40),Ramos cells; [2],Syn. → Add.
same,Effect (of combination with SGN-40),"Ramos cells; drug with cross-linked SGN-40, Ramos cells, listed as mitoxantrone",additive
Bleomycin,Effect (of combination with SGN-40),Ramos cells,Synergistic
TNFα,Combination Index at ED50,Ramos cells,0.70
same,Combination Index at ED75,Ramos cells,0.61
same,Combination Index at ED90,Ramos cells,0.60
same,Effect (of combination with SGN-40),Ramos cells; [2],Synergistic
B1,Binding Data 1,[1],23.6
same,Binding Data 2,[1],19.3
B2,Binding Data 2,CD40,1.82 and 1.83
B3,Binding Data 1,CD40,1/11 and 0.86 and 0.77
same,Binding Data 2,CD40,0.69 and 0.77
B4,binding activity compared with the parent murine antibody,CD40,approaching that of the parent murine antibody
B5,binding activity compared with the parent murine antibody,CD40,approaching that of the parent murine antibody
same,Binding Data 2,[1],0.9
B6,Binding Data 2,[1],2.71
B7,Binding Data 1,[1],471
same,Binding Data 2,[1],371
B8,Binding Data 1,CD40,0.96 and 0.67
same,binding activity compared with the parent murine antibody,CD40,approaching that of the parent murine antibody; also recorded: more closely approaching that of the parent murine antibody
same,Binding Data 2,[1],1.03
B9,Binding Data 2,[1],3.56
B10,Binding Data 1,CD40,1.02 and 1.06
same,binding activity compared with the parent murine antibody,CD40,approaching that of the parent murine antibody; also recorded: more closely approaching that of the parent murine antibody; also recorded: best performance
same,Binding Data 2,[1],0.92
B11,Binding Data 2,[1],2.46
B12,Binding Data 1,CD40,1.04 and 1.03 and 0.94 and 0.83
same,binding activity compared with the parent murine antibody,CD40,approaching that of the parent murine antibody; also recorded: more closely approaching that of the parent murine antibody
same,Binding Data 2,[1],1.4
B13,Binding Data 1,CD40,1.44 and 1.41 and 1.80 and 0.93
same,binding activity compared with the parent murine antibody,CD40,approaching that of the parent murine antibody
same,Binding Data 2,[1],0.84
B14,Binding Data 1,[1],1
same,Binding Data 2,[1],1.33
